Molecular target: the molecule itself
Assay: SEC

B1: PMK3 (p38 MAPK of C. elegans), full length (enzyme, UniProt O44514 1-474, looked up)
chain: MASVPSSSSLPVSHVRRHEDVSTPSAPPTKRSNNQSQPPESYEPNTWLQQQREQEQQKKLAAENIKKQSIEATGNNEMVGEEEEDILSKPCGPHKRRFQFVMIRNITFAIPEGYDVEPNSIEYLGGGSFGNVIKTSAVCRDGLRRYVAIKKMREPFFDPHHARRIFRETKLLQLMRHDNIICALDIYTPDEENDFRDVYVVTEFAGRSLYQILKQQRDYGRRVLTDEHIKFIIYQIIRALKYIHSANIIHRDLKPGNLALTDDSDLMILDFGLARSLEKKDTSLTQYVQTRWYRSPEVIYWKIDSYTNLADMWSLGCIAAELLTGEPLFPGDEPNAQYQRITQLCGSPDEELLTKIENDNSSAIKAVIQSYTTHKRRNFRDVFSAHNPSEDFIDLLEKLLVLDPEKRITVEEAIQHPYLAEFSLPEDEPRADHIFDLDDSQARTRFEWRDAVWKEIMNYKRLSSSPLIPGEADR
- binding result: binds
